Data: US20090148437A1
Several values for one entry are separate records, joined by “and”; a condition that tells them apart may be missing. Equal entries are not always repeated. Values belong to the binder of their own block, whether it stands above or below them.

How the values were obtained:
TNFR1 on MRC-5 cells = TNFR1 on MRC-5 cells (UniProt P19438); assay: cell-based or functional assay
[1] = biological target: IL-R1-Fc (a fusion of IL-1RI and Fc) (UniProt P14778); assay: phage-displayed dAb: no trypsin overnight 37 C, biopanning on 1 nM IL-R1-Fc
IL-R1-Fc (a fusion of IL-1RI and Fc), sequence (P14778 18-336 limits assumed): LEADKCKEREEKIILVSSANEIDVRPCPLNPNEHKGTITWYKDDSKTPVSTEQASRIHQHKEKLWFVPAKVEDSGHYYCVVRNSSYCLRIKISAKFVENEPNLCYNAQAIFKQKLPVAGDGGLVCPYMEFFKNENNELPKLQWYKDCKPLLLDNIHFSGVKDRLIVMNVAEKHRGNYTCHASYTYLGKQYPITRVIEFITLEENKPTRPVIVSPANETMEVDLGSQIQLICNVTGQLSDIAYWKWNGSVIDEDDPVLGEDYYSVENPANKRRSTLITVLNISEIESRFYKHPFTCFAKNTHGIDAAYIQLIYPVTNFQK

[2] = biological target: IL-R1-Fc (a fusion of IL-1RI and Fc) (UniProt P14778); assay: phage-displayed dAb: no trypsin 1 hr room temp, biopanning on 1 nM IL-R1-Fc
[3] = biological target: IL-R1-Fc (a fusion of IL-1RI and Fc) (UniProt P14778); assay: phage-displayed dAb: trypsin 10 µg/ml 1 hr room temp, then biopanning on 1 nM IL-R1-Fc
[4] = biological target: IL-R1-Fc (a fusion of IL-1RI and Fc) (UniProt P14778); assay: phage-displayed dAb: trypsin 100 µg/ml overnight room temp, then biopanning on 1 nM IL-R1-Fc
[5] = biological target: IL-R1-Fc (a fusion of IL-1RI and Fc) (UniProt P14778); assay: phage-displayed dAb: trypsin 100 µg/ml overnight 37 C, then biopanning on 1 nM IL-R1-Fc
[6] = biological target: IL-R1-Fc (a fusion of IL-1RI and Fc) (UniProt P14778); assay: phage-displayed dAb: trypsin 100 µg/ml 1 hr room temp, then biopanning on 1 nM IL-R1-Fc
[7] = biological target: IL-R1-Fc (a fusion of IL-1RI and Fc) (UniProt P14778); assay: phage-displayed dAb: trypsin 10 µg/ml overnight room temp, then biopanning on 1 nM IL-R1-Fc
IL-1R1 = IL-1R1 (UniProt P14778); assay: Receptor Binding Assay, inhibition of IL-1 binding to IL-R1 (column head says nM, cell says pM)
IL-1R1, sequence (P14778 18-332 limits assumed): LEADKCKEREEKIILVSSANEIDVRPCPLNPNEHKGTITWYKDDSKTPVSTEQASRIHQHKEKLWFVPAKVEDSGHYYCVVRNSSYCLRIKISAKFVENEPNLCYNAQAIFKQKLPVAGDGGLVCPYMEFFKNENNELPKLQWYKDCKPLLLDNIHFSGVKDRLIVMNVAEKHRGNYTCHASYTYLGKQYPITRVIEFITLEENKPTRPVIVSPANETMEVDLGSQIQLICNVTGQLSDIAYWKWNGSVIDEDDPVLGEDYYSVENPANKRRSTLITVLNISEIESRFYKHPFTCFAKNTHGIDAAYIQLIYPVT

[8] = biological target: IL-R1-Fc (a fusion of IL-1RI and Fc) (UniProt P14778); assay: phage-displayed dAb: no trypsin overnight room temp, biopanning on 1 nM IL-R1-Fc
[9] = biological target: IL-R1-Fc (a fusion of IL-1RI and Fc) (UniProt P14778); assay: phage-displayed dAb: trypsin 10 µg/ml overnight 37 C, then biopanning on 1 nM IL-R1-Fc
[10] = biological target: human VEGF (human vascular endothelial growth factor) (human) (UniProt P15692); assay: phage-displayed dAb, expt 2 (input 10^9): trypsin 100 µg/ml 2 hr 37 C 250 rpm, then capture on biotinylated rhVEGF
human VEGF (human vascular endothelial growth factor) (human), sequence (P15692 other isoform, or with tags, fused parts or gaps limits assumed): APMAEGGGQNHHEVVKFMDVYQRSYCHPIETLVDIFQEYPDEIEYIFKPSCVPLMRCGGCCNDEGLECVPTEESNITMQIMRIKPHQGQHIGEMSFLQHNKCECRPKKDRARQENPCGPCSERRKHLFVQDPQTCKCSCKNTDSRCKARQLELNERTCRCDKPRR

[11] = biological target: human VEGF (human vascular endothelial growth factor) (human) (UniProt P15692); assay: BIAcore kinetics
[12] = biological target: human VEGF (human vascular endothelial growth factor) (human) (UniProt P15692); assay: monoclonal phage ELISA on biotinylated hVEGF (neutravidin plate) after 100 ug/ml trypsin 1 h 37 C
[13] = biological target: human VEGF (human vascular endothelial growth factor) (human) (UniProt P15692); assay: phage-displayed dAb, expt 2 (input 10^9): trypsin 100 µg/ml 1 hr 37 C 250 rpm, then capture on biotinylated rhVEGF
[14] = biological target: human VEGF (human vascular endothelial growth factor) (human) (UniProt P15692); assay: phage-displayed dAb, expt 1 (input 10^10): trypsin 100 µg/ml 1 hr room temp, then capture on 50 nM biotinylated rhVEGF + streptavidin beads
[15] = biological target: human VEGF (human vascular endothelial growth factor) (human) (UniProt P15692); assay: phage-displayed dAb, expt 1 (input 10^10): no trypsin (0 µg/ml) 1 hr room temp, capture on 50 nM biotinylated rhVEGF
[16] = biological target: human VEGF (human vascular endothelial growth factor) (human) (UniProt P15692); assay: phage-displayed dAb, expt 1 (input 10^10): trypsin 10 µg/ml 1 hr room temp, then capture on 50 nM biotinylated rhVEGF
[17] = biological target: human VEGF (human vascular endothelial growth factor) (human) (UniProt P15692); assay: receptor binding assay (inhibition of VEGF binding to VEGFR2)
[18] = biological target: human VEGF (human vascular endothelial growth factor) (human) (UniProt P15692); assay: phage-displayed dAb, expt 2 (input 10^9): no trypsin 2 hr 37 C 250 rpm, capture on biotinylated rhVEGF

TNFR1 on MRC-5 cells, sequence (P19438 30-455 limits assumed): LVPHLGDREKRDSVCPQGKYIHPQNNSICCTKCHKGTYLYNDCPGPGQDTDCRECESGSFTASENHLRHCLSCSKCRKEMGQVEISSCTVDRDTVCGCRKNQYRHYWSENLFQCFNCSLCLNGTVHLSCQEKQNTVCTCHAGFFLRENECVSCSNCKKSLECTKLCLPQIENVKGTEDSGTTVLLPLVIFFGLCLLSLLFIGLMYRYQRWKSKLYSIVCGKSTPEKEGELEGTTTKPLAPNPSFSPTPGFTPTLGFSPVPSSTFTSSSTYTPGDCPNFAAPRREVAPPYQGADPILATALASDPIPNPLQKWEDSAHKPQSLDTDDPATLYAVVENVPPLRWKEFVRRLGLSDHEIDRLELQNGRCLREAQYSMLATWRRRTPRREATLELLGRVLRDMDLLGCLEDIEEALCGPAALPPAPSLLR

B1: DOM1h-131-511 (protein)
VH: EVQLLESGGGLVQPGGSLRLSCAASGFTFAHETMVWVRQAPGKGLEWVSHIPPVGQDPFYADSVKGRFTISRDNSKNTLYLQMNSLRAEDTAVYYCALLPKRGPWFDYWGQGTLVTVSS
- ND50, MRC-5 cell-based assay (IL-8 release) (TNFR1 on MRC-5 cells): 1.98 nM and 1.71 nM and 1.46 nM
- ND50, MRC-5 cell-based assay (IL-8 release); sample DOM1h-131-511 (230307CE) (TNFR1 on MRC-5 cells): 1.89 nM

B3: DOM1h-131-204 (protein, from a related filing)
VH: EVQLSESGGGLVQPGGSLRLSCAASGFTFAHETMVWVRQAPGKGLEWVSHIPPDGQDPFYADSVKGRFTISRDNSKNTLYLQMNSLRAEDTAVYYCALLPNRGPWFDYWGQGTLVTVSS
- ND50, MRC-5 cell-based assay (IL-8 release); sample DOM1h-131-204 (230307CE) (TNFR1 on MRC-5 cells): 1.89 nM

B5: DOM4-130-201 (protein, from a related filing)
VL: DIQMTQSPSSLSASVGDRVTITCRASQDIYLNLDWYQQKPGKAPKLLIKFGSELQSGVPSRFSGSGYGTDFTLTISNLQPEDFATYYCQPSFYFPYTFGQGTKVEIKW
- IC50 (IL-1R1): 0.257 nM

B6: DOM4-130-202 (protein, from a related filing)
VL: DIQMTQSPSSLSASVGDRVTISCRASQDIYLNLDWYQQKPGKAPKLLISFGSELQSGVPSRFSGSGYGTDFTLTISSLQPEDSATYYCQPSFYYPYTFGQGTKVEIKR
- IC50 (IL-1R1): 0.254 nM

B7: DOM15-10 (protein, from a related filing)
VL: DIQMTQSPSSLSASVGDRVTITCRASQWIGPELSWYQQKPGKAPKLLIYHTSILQSGVPSRFSGSGSGTDFTLTISSLQPEDFATYYCQQYMFQPRTFGQGTKVEIRR
- output phage titre [10]: 10000
- Kd [11]: 23.6 nM
- OD450 [12]: < 0.404
- output phage titre [13]: 100000
- output phage titre [14]: 1.1e+07
- output phage titre [15]: 7e+07
- output phage titre [16]: 2.4e+08
- EC50 [17]: 10.2 nM
- output phage titre [18]: 3e+08

Now from value to binder:

- ND50, MRC-5 cell-based assay (IL-8 release); sample DOM1h-131-203 (230307CE) (TNFR1 on MRC-5 cells): 2.28 nM
B2: DOM1h-131-203 (protein, from a related filing)
VH: EVQLWESGGGLVQPGGSLRLSCAASGFTFAHETMVWVRQAPGKGLEWVSHIPPDGQDPFYADSVKGRFTISRDNSKNTLYLQMNSLRAEDTAVYYCALLPKRGPWIDYWGQGTLVTVSS

- output phage titre [1]: 7.2e+09
- output phage titre [2]: 6.6e+09
- output phage titre [3]: 7.2e+09
- output phage titre [4]: 2.16e+09
- output phage titre [5]: 2.04e+06
- output phage titre [6]: 1.8e+10
- output phage titre [7]: 7.2e+09
- IC50 (IL-1R1): 0.28 nM
- output phage titre [8]: 7.8e+09
- output phage titre [9]: 3.84e+08
B4: DOM4-130-54 (protein, from a related filing)
VL: DIQMTQSPSSLSASVGDRVTITCRASQDIYLNLDWYQQKPGKAPKLLINFGSELQSGVPSRFSGSGYGTDFTLTISSLQPEDFATYYCQPSFYFPYTFGQGTKVEIKR

- Kd [11]: 14.6 nM
- EC50 [17]: 3.58 nM
B8: DOM15-10-11 (protein, from a related filing)
VL: DIQMTQSPSSLSASVGDRVTITCRASQWIGPELRWYQQKPGKAPKLLIYHTSILQSGVPSRFSGSGSGTDFTLTISSLQPEDFATYYCQQYMFQPMTFGQGTKVEIRG
